The text below walks through data of patent publication US7772181B2, “Personal care compositions comprising modified variant Bowman Birk Protease Inhibitors” (Danisco US Inc., priority 2008, dated 2010).

Series [1] has as its target T1, bovine pancreatic trypsin (Bos taurus, UniProt P00760).
T1 construct: purchased Worthington (Worthington Biochemical Corp.)
T1 sequence (P00760 24-246): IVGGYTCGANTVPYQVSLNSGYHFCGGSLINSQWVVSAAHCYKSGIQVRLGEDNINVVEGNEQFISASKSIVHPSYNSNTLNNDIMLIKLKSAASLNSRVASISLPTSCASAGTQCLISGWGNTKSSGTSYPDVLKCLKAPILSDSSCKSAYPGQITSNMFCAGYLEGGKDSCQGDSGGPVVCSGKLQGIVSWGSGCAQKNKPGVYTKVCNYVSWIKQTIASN
As to the kind of experiment: Purification process yield of octuple variants (trypsin inhibition). The format is biochemical. The protocol:
The best octuple variants selected in the shake flask screen were tested in the purification process essentially as described above, and including the following changes: 1) after growth, the culture was two fold diluted in glycine buffer (125 mM final concentration and pH adjusted to 9.0) instead of CHES buffer; 2) samples were activated with 2 mM 2-mercaptoethanol only (no sodium sulfite was added; 3) the acid precipitated fusion protein was resuspended in 100 ml of 125 mM glycine (rather than 350 ml of 40 mM glycine); and 4) the pellet collected after the acid/heat treatment was washed with 10 ml water, filtered, and this “washed pellet” filtrate was combined with the original filtrate. The final filtrates were concentrated and trimmed with Glu-BL as described above

The target in series [2] is T2, VegF (UniProt P15692).
T2 sequence (P15692 207-395): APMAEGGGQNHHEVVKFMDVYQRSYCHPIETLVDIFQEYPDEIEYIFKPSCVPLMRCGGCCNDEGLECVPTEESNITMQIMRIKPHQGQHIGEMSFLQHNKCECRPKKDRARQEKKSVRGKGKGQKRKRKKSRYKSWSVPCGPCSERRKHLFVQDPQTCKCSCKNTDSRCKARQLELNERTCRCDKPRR
As to the kind of experiment: BioVeris electrochemiluminescence competition binding assay, VEGF. The conditions noted are these: for competition with Anti-VegF antibody for binding to VegF (ECL signal): labeled Anti-VegF antibody, biotinylated VegF; for IC50: Target protein VEGF, competition assay, concentration reducing BioVeris signal by one half, read-out: BioVeris Binding (apparent IC50). The protocol: Briefly, after cleavage, the pH of the cleaved sample was adjusted to 5.5, the sample was then loaded onto the column (equilibrated with 25 mM MES pH 5.5). The free 2BBIck81 was washed through the column using 25 mM sodium acetate pH 5.0 while the BCE103 catalytic core remained bound to the resin. The 2BBIck81 fraction was concentrated by ultrafiltration and analyzed using an electrochemiluminescence (ECL) based binding assay (BioVeris). The Anti-VegF antibody (Santa Cruz) and VegF (PeproTech) were labeled with the electrochemiluminescent dye and biotin, respectively, as described by the manufacturer (BioVeris). All materials were in Dulbecco's PBS (Mediatech) supplemented with 0.1% TWEEN®-80. An initial dilution series of Anti-VegF antibody (125, 250 and 500 ng/ml) and VegF (100, 150, 200 and 250 ng/ml) were tested in the binding assay to determine the concentrations of each that would give a robust ECL signal.
For testing 2BBIck81 binding, 50 μL of 500 ng/ml ECL labeled Anti-VegF antibody, 50 μL of 250 ng/ml biotinylated VegF and 100 μL 2BBIck81 (series of 12.5, 15, 31.25, 62.5, 125, 250 or 500 ng/ml) were incubated at room temperature for 2 h with shaking. Then, 50 μL of 0.2 mg/ml streptavidin coated beads were added and the reaction was incubated at room temperature for 30 minutes. The ECL signal was measured using a BioVeris M8/384 Analyzer as described by the manufacturer (BioVeris).
The resulting vectors were used to transform B. subtilis BG6006 host cells. Cultures were grown in 500 ml of MBD medium and the BBI species were purified essentially as described above and by Vogtentanz et al., 2007 (Protein Expr Purif 55:40-52 [2007]). BioVeris binding assays were performed essentially as outlined in Example 5 and by the manufacturer. Binding of the modified variant BBIs to their respective target proteins was measured using a BioVeris® binding assay, which is a competition assay that determines the binding of the modified variant BBIs to its target protein (e.g. VEGF, FGF5, TGFβ and TNFα) in the presence or absence of a labeled competitor. The competitor can be a labeled monoclonal antibody raised against the target protein or a labeled native receptor of the target protein. The electrochemiluminescent binding assays were performed essentially as described in Example 5. The apparent IC50s were determined from binding data by determining the concentration of the BBI species needed to reduce the BioVeris signal by one half. BBI scaffolds without the target binding peptide in the chymotrypsin inhibitory loop were used as negative controls.

Series [3] deals with T1, bovine pancreatic trypsin. Nature of the series: Trypsin inhibitory assay (BBI activity). The format is biochemical. Particulars: BCE103 fusion protein in cell free broth. As to the method: Trypsin inhibitory assays were performed in Assay Buffer to determine the BBI activity. Specifically, a standard curve was generated by making eleven 1:1 serial dilutions (100 μL BBI+100 μL Assay Buffer) of a 2 μg/mL standard BBI solution. The BBI standard was purified from a 1 mg/ml Trypsin-Chymotrypsin Inhibitor (Sigma Cat. #T-9777) solution in 20 mM MES pH 6.0 using a hydrophobic interaction column (POROS HP2, Phenyl column, Applied Biosystems). The column was equilibrated with 20 mM MES pH 6.0, loaded with 5 mg of the inhibitor, washed with the equilibration buffer, and then the BBI was eluted with water. Unknown BBI samples to be tested in the inhibitory assay were diluted as necessary, so that two or more data points would fall within the standard curve (usually 1:10, 1:100, 1:200, 1:1000, 1:2000 sample dilutions were tested and then the dilutions fine tuned if necessary). […] After the incubation, 100 μL of the 0.5 mg/ml trypsin substrate (diluted in Assay Buffer from a 100 mg/ml solution in DMSO), Suc-AAPR-pNA (succinyl-Ala-Ala-Pro-Arg-para-nitroanilide, Bachem), was added, mixed and the OD (A405) was monitored for 15 min, with 1 time point recorded every 12 sec using a Spectra Max 250 (Molecular Devices). […] The BBI concentration of the unknown samples was calculated from the standard curve. Alternatively, the BBI activity was measured using the same protocol but by determining bovine pancreatic chymotrypsin (Worthington) inhibition (chymotrypsin was used at the same concentration as trypsin and chymotrypsin activity was measured by adding 100 μL of a 0.4 mg/ml chymotrypsin substrate, succinyl-Ala-Ala-Pro-Phe-para-nitroanilide, Bachem).
The relative concentration of active control and modified BBIt-AV's was determined by a trypsin inhibitory assay using purified sBBI as a standard as described above. For some samples, the active BBI concentration was measured by residual trypsin activity according to the method described by Flecker (Flecker, P. FEBS Lett. 252:153-157 [1989]; Vogtentanz et al. supra). […]

B1: QQ8: octuple modified variant BBPI, SEQ ID NO:628 (protein)
chain: DPDDESSKPCCDQCICTKSNPPQCRCKDARRNECHSACKSCKCYNLYGWTCQCQDITDFCYEPCKPSE
modifications: synthetic BBPI variant
For the molecule B1, in series [1], the “purification yield relative to quintuple variant (SEQ ID NO:601)” value is recorded as “greater than that of the quintuple modified variant” and the “yield relative to wild-type sBBI” value is on record as “better than the wild-type sBBI”.

B2: KT8: octuple modified variant BBPI, SEQ ID NO:627 (protein)
chain: DPDDESSKPCCDQCICTKSNPPQCRCRDARPNACHSACKSCHCYNLYGWTCKCTDITDFCYEPCKPSE
modifications: synthetic BBPI variant
For the molecule B2, in series [1], the “purification yield relative to quintuple variant (SEQ ID NO:601)” value is “greater than that of the quintuple modified variant” and the “yield relative to wild-type sBBI” value is reported as “better than the wild-type sBBI”.

B3: RL8: octuple modified variant BBPI, SEQ ID NO:630 (protein)
chain: DPDDESSKPCCDQCICTKSNPPQCRCKDARRNACHSACKSCHCYNLYGWTCRCLDITDFCYEPCKPSE
modifications: synthetic BBPI variant
Regarding B3, the “yield relative to wild-type sBBI” value in series [1] is listed as “better than the wild-type sBBI”.

B4: BBI-AV: BBI with VEGF binding peptide CK37281 replacing the chymotrypsin inhibitory loop, SEQ ID NO:186 (protein)
chain: DDESSKPCCDQCACTKSNPPQCRCSDMRLNSCHSACKSCACYNLYGWTCFCVDITDFCYEPCKPSEDDKEN
modifications: synthetic BBI-AV sequence
B4: in series [2], the “competition for VegF binding compared with synthesized CK37281 peptide” value is “better than the synthesized CK37281 peptide itself” and the “competition with Anti-VegF antibody for binding to VegF (ECL signal)” value was “shown to compete”. The “competition with Anti-VegF antibody for binding to VegF (ECL signal)” value in series [2] (listed as 2BBIck81) is given as “competed with the Anti-VegF antibody for binding to VegF at micromolar concentrations”. Further, the “activity of the BBI (trypsin inhibition) relative to fusions to the wild-type BBI” value in series [3] is given as “about two fold less”.

B5: BBIt-AV of SEQ ID NO: 641 (protein)
chain: DPDDESSKPCCDQCICTKSNPPQCRCRDARPNACHSACKSCACTLWKSYWCKCTDITDFCYEPCKPSE
modifications: synthetic BBIt-VEGT
B5: the half-inhibitory concentration (IC50) in series [2] is 2 to 10 µM.

B6: BBIt-AV of SEQ ID NO: 642 (protein)
chain: DPDDESSKPCCDQCICTKSNPPQCRCRDARPNACHSACKSCACKYDLYWWCKCTDITDFCYEPCKPSE
modifications: synthetic BBIt-VEGKD
As for B6, in series [2], the IC50 was in the range of 2 to 10 µM.
